Results published in the nanobody polyreactivity screen of Harvey et al. (2022).

Test: yeast display, Sf9 membrane polyspecificity reagent, FACS + sequencing; frameworks hold sequencing errors
How it was run: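 Using colony PCR, genes from sorted yeast display clones were amplified, then sequenced on MiSeq at 2 × 250 and filtered by CDR length. The clones had been stained with 10% biotinylated, detergent-solubilized Sf9 membrane reagent for 1 hour at 4 °C and sorted by FACS into low and high (top ~1%) gates on anti-HA and streptavidin fluorescence. Polyreactivity labels come from the gate of origin.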

QVQLVESGGGLFQAGGSLRLSCAASGRTFWRYAMGWSRQAPGKERELVAAITSGGGSTFYADSVKGRFTISRDYAKNTVDLQMNILKAEVTAVYYCNREYRWGNSLYSRYDYWGQGTQVTVSS
polyreactivity (PSR sort gate): high polyreactivity
